From patent US20150087812A1 (Janssen / Centocor, published 2015) come the findings set out here.

Assay [1] concerns the target T1, recombinant human ATX beta isoform with N-terminal purification tag (human, UniProt Q13822 49-863). The assay can be described thus: Fab-His ELISA. Here is the method: (§1) Fabs were captured on black MaxiSorp plates (Nunc, Cat. No. 437111) coated with 1 μg/ml sheep anti-human Fd (CH1) antibody (The Binding Site, Cat. No. PC075). Plates were washed and biotinylated human ATX was added to the captured Fabs at 5 nM. Incubation was carried out for 1 hour at room temperature with gentle shaking. Plates were washed, SA-HRP (Invitrogen, Cat. No. 43-4323) was added and chemiluminescent detection carried out.
(§2) Clones with binding above background were sequenced and unique clones identified. […] These clones were identified with binding signal to human ATX at least 6-fold above the background. Table 3 lists the identifier for VH and VL (Peptide ID) and the combination of both (Fab ID) sorted by the Fab ELISA binding data.

For assay [2], the target named is T1, recombinant human ATX beta isoform with …. The assay can be described thus: ELISA, Fab-His captured by anti-Fd, 5 nM biotinylated human ATX beta. Here is the method: as §1, §2
Assay [3] shares this target. The experiment in a line: cell-based or functional assay.
Assay [4] deals with recombinant mouse ATX beta isoform (R&D Systems, Cat No. 6187-EN-010) (mouse, UniProt Q9R1E6 36-862). The experiment in a line: cell-based or functional assay.
Assay [5] concerns the target T1, recombinant human ATX beta isoform with …. The assay can be described thus: SPR Biacore 3000, His-ATX beta captured on anti-Penta-His, mAb as analyte, bivalent analyte model. As for the experimental part:
Affinity measurements using surface plasmon resonance (SPR) were performed using a Biacore 3000 optical biosensor (Biacore) for ATXB3, ATXB6, ATXB8, ATXB9, ATXB13, and ATXB14. A biosensor surface was prepared by coupling anti-Penta-His antibody (Qiagen, Cat No. 34660) to the carboxymethylated dextran surface of a CM-5 chip (Biacore, Cat No. BR-1000-14) using the manufacturer instructions for amine-coupling chemistry. Approximately 15,000 RU (response units) of anti-Penta-His antibody were immobilized in each of four flow cells. The kinetic experiments were performed at 25° C. in running buffer (PBS+0.01% P20+100 ug/ml BSA). Serial dilutions of anti-ATX mAbs (ATXB3, B6, B8, B9, B13, B14) from 900 nM to 0.412 nM were prepared in running buffer. About 80 RU of human ATX beta-His tagged proteins were captured on flow cell 2 of the sensor chip. Flow cell 1 was used as reference surface. Capture of ATX was followed by five minutes injection (association phase) of anti-ATX mAbs at 50 uL/min, followed by 15 minutes of buffer flow (dissociation phase). The chip surface was regenerated by 15 seconds injection of 100 mM H₃PO₄ (Sigma, Cat No. 7961) at 50 uL/min. The collected data were processed using BIAevaluation software, version 3.2 (Biacore). First, double reference subtraction of the data was performed by subtracting the curves generated by buffer injection from the reference-subtracted curves for analyte injections. Then kinetic analysis of the data was performed using the Bivalent Analyte binding model with global fitting. Kd1 (Kₒₙ) was calculated as intrinsic KD with minimum avidity. The result for each mAb was reported in the format of Ka1 (On-rate, Kₒₙ), Kd1 (Off-rate, Koff) and KD1 (Equilibrium dissociation constant). Affinity measurements for ATXB18 were performed on a Proteon XPR36 system (Bio-Rad), using a protocol similar to the one used on the Biacore platform.
The five mAbs with the lowest IC50 values in the inhibition assays as well as ATXB3, a non-neutralizing antibody, were tested for their affinity to the human ATX-beta isoform, as measured by surface plasmon resonance. Due to nonspecific binding of the ATX antigen to the chip surface, these experiments had to be conducted in the reverse format, with ATX immobilized on the chip surface (ligand) and our antibodies in solution (analyte).

B1: Fab F89 (VH H70, VL L82) (Fab, V domains shown)
VH: QVQLVQSGAEVKKPGSSVKVSCKASGGTFSSYAISWVRQAPGQGLEWMGGISPYFGNANYAQKFQGRVTITADESTSTAYMELSSLRSEDTAVYYCARYGDFGGNVFTEFDYWGQGTLVTVSS
VL: EIVLTQSPGTLSLSPGERATLSCRASQSVNNSDLAWYQQKPGQAPRLLIYTASSRATGIPDRFSGSGSGTDFTLTISRLEPEDFAVYYCQQATTVPLTFGQGTKVEIK
notes: Soluble Fab-His; converted to mAb B9
Take B1: the fold above background in assay [1] was at least 6 fold. The “Fab Binding” value in assay [2] is 5.7e+06 relative chemiluminescence units.

B2: mAb ATXB6 (antibody, V domains shown)
VH: QVQLVQSGAEVKKPGSSVKVSCKASGGTFSSYAISWVRQAPGQGLEWMGGIIPIFGTANYAQKFQGRVTITADESTSTAYMELSSLRSEDTAVYYCARDLYIYGDLDYWGQGTLVTVSS
VL: DIQMTQSPSSLSASVGDRVTITCRASQSIGGWLNWYQQKPGKAPKLLIYTASSLQSGVPSRFSGSGSGTDFTLTISSLQPEDFATYYCQQSYTYPITFGQGTKVEIK
notes: Human IgG1/kappa from Fab F73
Take B2: the “IC50, inhibition of LPC hydrolysis by human ATX beta (1.5 nM), coupled choline oxidation (Amplex Red) assay” value in assay [3] was determined as 1 nM. Besides, the “IC50, inhibition of LPC hydrolysis by mouse ATX, coupled choline oxidation (Amplex Red) assay” value in assay [4] amounted to 0.3 nM. For the same molecule, in assay [5], the Kd came to 0.329 nM, the off-rate constant (koff) came out at 0.000292 s⁻¹ and the kon amounted to 444000 M⁻¹ s⁻¹.

B3: mAb ATXB7 (antibody, V domains shown)
VH: QVQLVQSGAEVKKPGSSVKVSCKASGGTFSSYAISWVRQAPGQGLEWMGGIIPIFGTANYAQKFQGRVTITADESTSTAYMELSSLRSEDTAVYYCARPIGTGYYGFFDYWGQGTLVTVSS
VL: DIQMTQSPSSLSASVGDRVTITCRASQSIAKWLNWYQQKPGKAPKLLIYFASSLQSGVPSRFSGSGSGTDFTLTISSLQPEDFATYYCQQSYSTPLTFGQGTKVEIK
On to B3, for which the “IC50, inhibition of LPC hydrolysis by human ATX beta (1.5 nM), coupled choline oxidation (Amplex Red) assay” value in assay [3] was 158 nM. Further, in assay [4], the “IC50, inhibition of LPC hydrolysis by mouse ATX, coupled choline oxidation (Amplex Red) assay” value amounted to 217 nM.

B4: mAb ATXB8 (antibody, V domains shown)
VH: QVQLVQSGAEVKKPGSSVKVSCKASGGTFSSYAISWVRQAPGQGLEWMGGIIPIFGTANYAQKFQGRVTITADESTSTAYMELSSLRSEDTAVYYCARDSSAYGDFDYWGQGTLVTVSS
VL: DIQMTQSPSSLSASVGDRVTITCRASQSIDGWLNWYQQKPGKAPKLLIYAASSLQSGVPSRFSGSGSGTDFTLTISSLQPEDFATYYCQQSYSTPLTFGQGTKVEIK
notes: Human IgG1/kappa from Fab F96
B4: in assay [3], the “IC50, inhibition of LPC hydrolysis by human ATX beta (1.5 nM), coupled choline oxidation (Amplex Red) assay” value worked out at 0.7 nM. The “IC50, inhibition of LPC hydrolysis by mouse ATX, coupled choline oxidation (Amplex Red) assay” value in assay [4] turned out to be 0.8 nM. In assay [5], the Kd is 1.77 nM, the koff was 0.000883 s⁻¹ and the kon amounted to 249000 M⁻¹ s⁻¹.

B5: mAb ATXB3 (antibody, V domains shown)
VH: EVQLVQSGAEVKKPGESLKISCKGSGYSFTSYWIGWVRQMPGKGLEWMGIIYPGDSDTRYSPSFQGQVTISADKSISTAYLQWSSLKASDTAMYYCARPYGTFDYWGQGTLVTVSS
VL: EIVLTQSPATLSLSPGERATLSCRASQSVADSLAWYQQKPGQAPRLLIYKASNRATGIPARFSGSGSGTDFTLTISSLEPEDFAVYYCQQSNGWPRTFGQGTKVEIK
notes: Human IgG1/kappa from Fab F17
Turning to B5, in assay [5], the Kd was 0.715 nM, the dissociation rate constant (koff) was 0.000303 s⁻¹ and the kon is 212000 M⁻¹ s⁻¹.

B6: Fab F40 (VH H32, VL L42) (Fab, V domains shown)
VH: EVQLVQSGGGLVQPGGSLRLSCAASGFTFSSYAMSWVRQAPGKGLEWVSVINSDGSSIYYADSVKGRFTISRDNSKNTLYLQMNSLRAEDTAVYYCAKLEAIDYAWGFDYWGQGTLVTVSS
VL: EIVLTQSPATLSLSPGERATLSCRASQSVADSLAWYQQKPGQAPRLLIYNASNRATGIPARFSGSGSGTDFTLTISSLEPEDFAVYYCQQSFHWPLTFGQGTKVEIK
notes: Soluble Fab-His; converted to mAb B16; the Fab's H32 may differ in FR1
Regarding B6, the fold above background in assay [1] is at least 6 fold. Besides, the “Fab Binding” value in assay [2] was 8.1e+06 relative chemiluminescence units.
